We go through seven molecules from publication PMC9083542, “Small Molecule Inhibitor Targeting CDT1/Geminin Protein Complex Promotes DNA Damage and Cell Death in Cancer Cells” (Frontiers in Pharmacology, 2022).

B1: Full-length human Geminin (natural protein, UniProt O75496 1-209, looked up)
chain: MNPSMKQKQEEIKENIKNSSVPRRTLKMIQPSASGSLVGRENELSAGLSKRKHRNDHLTSTTSSPGVIVPESSENKNLGGVTQESFDLMIKENPSSQYWKEVAEKRRKALYEALKENEKLHKEIEQKDNEIARLKKENKELAEVAEHVQYMAELIERLNGEPLDNFESLDNQEFDSEEETVEDSLVEDSEIGTCAEGTVSSSTDAKPCI
notes: Geminin, human, full length, cloned into pET22b; pET22b can add a C-terminal His tag (surmise); also called full length Geminin; source: E. coli Rosetta 2 (DE3), purified (Ni-NTA IMAC, SEC)

In one experiment the target is CDT1 (Homo sapiens) (UniProt Q9H211). The note with it: cited from earlier work.
The next experiment concerns the target T1, CDT1 (Homo sapiens, UniProt Q9H211).
T1 construct: tCDT1 (residues 158–356); also miniCDT1 (residues 158–396); with Geminin
T1 sequence (Q9H211 158-356): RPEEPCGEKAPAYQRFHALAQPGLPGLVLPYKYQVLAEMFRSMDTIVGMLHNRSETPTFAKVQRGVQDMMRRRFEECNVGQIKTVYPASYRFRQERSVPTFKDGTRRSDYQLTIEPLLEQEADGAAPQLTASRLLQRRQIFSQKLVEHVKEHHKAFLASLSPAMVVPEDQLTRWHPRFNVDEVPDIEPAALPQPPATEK
T1 sequence (O75496 1-209 partner): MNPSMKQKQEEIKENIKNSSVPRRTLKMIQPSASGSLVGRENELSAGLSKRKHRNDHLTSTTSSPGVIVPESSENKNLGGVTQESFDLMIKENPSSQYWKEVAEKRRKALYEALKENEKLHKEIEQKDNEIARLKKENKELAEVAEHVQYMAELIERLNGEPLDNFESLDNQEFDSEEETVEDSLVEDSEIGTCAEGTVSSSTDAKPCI
Briefly: SPR inhibition of Geminin binding to immobilized CDT1; AlphaScreen IC50 […]; FRET in MCF7 cells.

Experiment [1] concerns the target T2, His-tagged human CDT1^158-396 Y170A (miniCDT1Y170A) (human, UniProt Q9H211 158-396, Y170A).
T2 construct: CDT1, human, residues 158-396 with Y170A, cloned into pET28a; also called His6-tagged miniCDT1^Y170A; source: E. coli Rosetta 2 (DE3), expressed alone or co-expressed with ΔDBGeminin, purified (Ni-NTA IMAC, SEC); not shown: His6, N-terminal, kept
T2 sequence (looked up): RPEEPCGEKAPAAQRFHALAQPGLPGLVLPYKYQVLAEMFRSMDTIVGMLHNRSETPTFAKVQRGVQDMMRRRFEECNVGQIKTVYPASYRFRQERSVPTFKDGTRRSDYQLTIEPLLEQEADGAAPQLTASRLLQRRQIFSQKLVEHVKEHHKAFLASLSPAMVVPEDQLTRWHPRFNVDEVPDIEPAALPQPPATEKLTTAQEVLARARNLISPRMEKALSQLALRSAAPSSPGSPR
The experiment in a line: SPR; Biacore T100, 25°C; about 5.000 RU of miniCDT1 variants held on a Ni NTA chip via N-terminal His-tag; full-length Geminin injected at 1-100 nM; 20 mM Tris pH 7.5, 200 mM NaCl, 30 μl/min. The note with it: both partners purified.

Experiment [2] has as its target T3, His-tagged human CDT1^158-396 F173A (miniCDT1F173A) (human, UniProt Q9H211 158-396, F173A).
T3 construct: CDT1, human, residues 158-396 with F173A, cloned into pET28a; source: E. coli Rosetta 2 (DE3), expressed alone or co-expressed with ΔDBGeminin, purified (Ni-NTA IMAC, SEC); not shown: His6, N-terminal, kept
T3 sequence (looked up): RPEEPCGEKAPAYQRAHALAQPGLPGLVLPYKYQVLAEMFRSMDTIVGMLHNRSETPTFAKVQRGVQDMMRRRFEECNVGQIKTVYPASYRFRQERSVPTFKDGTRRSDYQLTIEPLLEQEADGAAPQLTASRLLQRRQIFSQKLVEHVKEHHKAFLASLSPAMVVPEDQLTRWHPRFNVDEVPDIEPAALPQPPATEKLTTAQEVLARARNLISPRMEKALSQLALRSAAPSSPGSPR
Described as above. The conditions noted are these: both partners purified.

The target in experiment [3] is T4, His-tagged human CDT1^158-396 (miniCDT1), wild type (human, UniProt Q9H211 158-396).
T4 construct: CDT1, human, residues 158-396 (miniCDT1); plasmid described in De Marco et al., 2009; also called His6-tagged miniCDT1; source: E. coli Rosetta 2 (DE3), expressed alone or co-expressed with Geminin variants, purified (Ni-NTA IMAC, SEC); not shown: His6, N-terminal, kept
T4 sequence (looked up): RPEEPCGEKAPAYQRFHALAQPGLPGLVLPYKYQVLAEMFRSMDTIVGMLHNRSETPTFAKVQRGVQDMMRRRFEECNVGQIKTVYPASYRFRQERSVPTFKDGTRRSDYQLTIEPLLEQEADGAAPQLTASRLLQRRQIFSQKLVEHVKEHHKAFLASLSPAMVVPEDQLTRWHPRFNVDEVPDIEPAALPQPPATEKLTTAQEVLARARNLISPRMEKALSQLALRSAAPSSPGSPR
The description is as above. The conditions noted are these: both partners purified.

Another experiment concerns the target T5, CDT1-GFP (UniProt Q9H211 1-546).
T5 construct: CDT1 fused to GFP; plasmid and cell line from Xouri et al., 2007; also called MCF7 CDT1-GFP; source: MCF7 cells stably expressing CDT1-GFP, in fixed cells
T5 sequence (looked up): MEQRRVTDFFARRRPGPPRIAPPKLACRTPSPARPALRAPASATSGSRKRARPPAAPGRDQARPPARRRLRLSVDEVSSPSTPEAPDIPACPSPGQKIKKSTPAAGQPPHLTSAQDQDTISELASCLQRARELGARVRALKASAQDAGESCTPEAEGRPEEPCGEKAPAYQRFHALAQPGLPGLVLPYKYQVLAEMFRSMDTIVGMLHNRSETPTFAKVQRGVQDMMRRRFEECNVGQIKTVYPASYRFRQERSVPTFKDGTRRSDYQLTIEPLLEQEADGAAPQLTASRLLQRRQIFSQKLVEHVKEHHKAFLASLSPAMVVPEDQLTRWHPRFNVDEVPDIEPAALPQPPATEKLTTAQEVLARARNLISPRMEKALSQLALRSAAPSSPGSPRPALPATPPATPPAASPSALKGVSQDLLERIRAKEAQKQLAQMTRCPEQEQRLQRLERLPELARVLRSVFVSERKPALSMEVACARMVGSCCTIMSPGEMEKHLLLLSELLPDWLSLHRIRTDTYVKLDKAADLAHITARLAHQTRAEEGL
Briefly: FRET or BRET; sensitized emission FRET in fixed MCF7 cells stably expressing CDT1-GFP (or GFP-NLS as control), transiently transfected with Geminin-dHcRed; with DMSO or AF615 at 11, 33, 100 μM for 24 h. The conditions noted are these: partners not purified. On the technique in general: Bioluminescence resonance energy transfer reports proximity on the nanometre scale.

Experiment [4] has as its target T2, His-tagged human CDT1^158-396 Y170A …. Briefly: AlphaScreen or HTRF; HTS format and its optimisation (titration, data not shown): Flag-ΔDBGeminin/His6-miniCDT1Y170A complex 200-400 nM (300 nM in the screen), 10 μg/ml streptavidin Donor and nickel-chelate Acceptor beads, 25 nM biotinylated anti-Flag antibody; 25 mM Hepes pH 7.4, 100 mM NaCl, 0.2% BSA. The note with it: both partners purified. A general note: In Alpha technology, singlet oxygen from a donor bead excites a nearby acceptor bead.

For experiment [5], the target named is T3, His-tagged human CDT1^158-396 F173A …. The experiment in a line: AlphaScreen or HTRF; competition: Flag-ΔDBGeminin/His6-miniCDT1 mutant complex at 50 nM, streptavidin Donor beads with biotinylated anti-Flag antibody, nickel-chelate Acceptor beads; increasing untagged ΔDBGeminin; 25 mM Hepes pH 7.4, 100 mM NaCl, 0.1% BSA; 1.5 h at RT. The conditions noted are these: both partners purified.

The target in experiment [6] is T6, His-tagged human CDT1^158-396 L176A (miniCDT1L176A) (human, UniProt Q9H211 158-396, L176A).
T6 construct: CDT1, human, residues 158-396 with L176A, cloned into pET28a; Could not be isolated on its own (limited solubility); used only as complex with ΔDBGeminin; source: E. coli Rosetta 2 (DE3), co-expressed with ΔDBGeminin, co-purified (Ni-NTA IMAC, SEC)
T6 sequence (looked up): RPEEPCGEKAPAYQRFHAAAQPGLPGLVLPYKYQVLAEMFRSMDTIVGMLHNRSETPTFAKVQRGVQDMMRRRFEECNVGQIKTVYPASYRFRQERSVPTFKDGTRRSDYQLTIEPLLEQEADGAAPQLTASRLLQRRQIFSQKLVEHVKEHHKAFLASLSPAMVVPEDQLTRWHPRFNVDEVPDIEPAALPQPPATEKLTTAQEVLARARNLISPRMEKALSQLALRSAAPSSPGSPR
The description is as above. The conditions noted are these: both partners purified.

For experiment [7], the target named is B1. The experiment in a line: SPR; Biacore T100, 25°C; tCDT1 (about 6.000 RU) or miniCDT1 covalently immobilised on a CM5 chip (amine coupling, pH 5.5); Geminin 12-966 nM with AF615 at 10 μM, 100 μM, 1 mM (20% DMSO); 20 mM Hepes pH 7.5, 200 mM NaCl, Tween 20 0.01%, 30 μl/min. The note with it: both partners purified. A general note: Surface plasmon resonance follows binding to a sensor surface in real time, without labels.

The Kd is the free concentration of one partner at which half of the binding sites on the other are occupied at equilibrium, for simple one-to-one binding. Geminin (from UniProt O75496): the Kd in the experiment with CDT1 (Homo sapiens) is 4.4 nM.
As usually defined, the Ki is a dissociation constant, usually derived from enzyme kinetics or from competition with a known ligand. The low end stands for tighter binding, the high end for weaker binding. Consider `O=C(NNC(=S)N1CCOCC1)c1cnccn1` [AF615], for which the Ki at CDT1 is 370 nM.
With B1, the dissociation constant Kd in experiment [1] was determined as 41 nM; in [2] it was 25 nM; in experiment [3], 9.4 nM.

B2: Geminin-dHcRed (natural protein, UniProt O75496 1-209, looked up)
chain: MNPSMKQKQEEIKENIKNSSVPRRTLKMIQPSASGSLVGRENELSAGLSKRKHRNDHLTSTTSSPGVIVPESSENKNLGGVTQESFDLMIKENPSSQYWKEVAEKRRKALYEALKENEKLHKEIEQKDNEIARLKKENKELAEVAEHVQYMAELIERLNGEPLDNFESLDNQEFDSEEETVEDSLVEDSEIGTCAEGTVSSSTDAKPCI
notes: Geminin fused to dHcRed; plasmid from Xouri et al., 2007; source: MCF7 cells, transiently transfected, in fixed cells
Regarding B2, the “FRET mean intensity against cells expressing GFP-NLS and Geminin-dHcRed” value with CDT1-GFP was ~3 fold.

B3: Flag-tagged Geminin^28-209 (ΔDBGeminin) (domain or fragment, human, UniProt O75496 28-209, looked up)
chain: MIQPSASGSLVGRENELSAGLSKRKHRNDHLTSTTSSPGVIVPESSENKNLGGVTQESFDLMIKENPSSQYWKEVAEKRRKALYEALKENEKLHKEIEQKDNEIARLKKENKELAEVAEHVQYMAELIERLNGEPLDNFESLDNQEFDSEEETVEDSLVEDSEIGTCAEGTVSSSTDAKPCI
notes: Geminin, human, residues 28-209 (lacks the N-terminal stretch with the destruction box), cloned into pET22b; also called Flag-tagged ΔDBGeminin; source: E. coli Rosetta 2 (DE3), co-expressed with miniCDT1 variants, co-purified (Ni-NTA IMAC, SEC)
In the case of B3, in [4], the AlphaScreen signal-to-background ratio was > 20 fold.

B4: untagged ΔDBGeminin (domain or fragment, human, UniProt O75496 28-209, looked up)
chain: MIQPSASGSLVGRENELSAGLSKRKHRNDHLTSTTSSPGVIVPESSENKNLGGVTQESFDLMIKENPSSQYWKEVAEKRRKALYEALKENEKLHKEIEQKDNEIARLKKENKELAEVAEHVQYMAELIERLNGEPLDNFESLDNQEFDSEEETVEDSLVEDSEIGTCAEGTVSSSTDAKPCI
notes: Geminin, human, residues 28-209 (ΔDBGeminin), without the Flag tag; also called untagged ΔDBGeminin (Geminin 28-209)
With B4, the “excess of untagged ΔDBGeminin needed for a similar signal reduction” value in [5] was 10 fold; in experiment [6] it was 100 fold.

B5: His-tagged human CDT1^158-356 (tCDT1) (domain or fragment, UniProt Q9H211 158-356, looked up)
chain: RPEEPCGEKAPAYQRFHALAQPGLPGLVLPYKYQVLAEMFRSMDTIVGMLHNRSETPTFAKVQRGVQDMMRRRFEECNVGQIKTVYPASYRFRQERSVPTFKDGTRRSDYQLTIEPLLEQEADGAAPQLTASRLLQRRQIFSQKLVEHVKEHHKAFLASLSPAMVVPEDQLTRWHPRFNVDEVPDIEPAALPQPPATEK
notes: CDT1, human, residues 158-356 (tCDT1); plasmid described in De Marco et al., 2009; source: E. coli Rosetta 2 (DE3), purified (Ni-NTA IMAC, SEC)
As to B5, in experiment [7], the binding result was “binds”.
